Test results taken from publication PMC4940160, “Architecture and RNA binding of the human negative elongation factor”.

Experiments:
[1] = molecular target: NELF-A (6-188);NELF-C (183-590) (Homo sapiens;Homo sapiens, UniProt Q9H3P2;Q8IXH7 6-188;183-590, |); test: fluorescence anisotropy; NELF-AC: 30 mM NaCl, 3 mM MgCl2, 10 mM Na-HEPES pH 7.4, 2 mM DTT, 50 ug/ml BSA; other NELF complexes: same with 60 mM NaCl and 5 ug/ml yeast tRNA; 10 nM nucleic acid, incubated at RT, read at 30 C; details: protein: recombinant;recombinant, tags: N-His6 removed by thrombin;none, copies: 1;1
[2] = molecular target: NELF-A full-length;NELF-B;NELF-D (called NELF-C);NELF-E (1-138) (Homo sapiens;Homo sapiens;Homo …, UniProt Q9H3P2;Q8WX92;Q8IXH7-4;P18615 1-528;49-628;1-581;1-138, |||); test: fluorescence anisotropy; yeast tRNA 5 ug/ml; NELF-AC: 30 mM NaCl, 3 mM MgCl2, 10 mM Na-HEPES pH 7.4, 2 mM DTT, 50 ug/ml BSA; other NELF complexes: same with 60 mM NaCl and 5 ug/ml yeast tRNA; 10 nM nucleic acid, incubated at RT, read at 30 C; details: protein: recombinant;recombinant;recombinant;recombinant, copies: 1;1;1;1, label: 5'-FAM
[3] = molecular target: NELF-B (Homo sapiens, UniProt Q8WX92 49-628); test: as above; details: protein: recombinant; tags: N-His6-TEV in NELF-B and NELF-BE constructs (cleaved); label: 5'-FAM; single strand
[4] = molecular target: NELF-B;NELF-E (1-138) (Homo sapiens;Homo sapiens, UniProt Q8WX92;P18615 49-628;1-138, |); test: as above; details: protein: recombinant;recombinant, tags: N-His6-TEV in NELF-B and NELF-BE constructs (cleaved);none stated, copies: 1;1, label: 5'-FAM
[5] = molecular target: NELF-A full-length;NELF-B;NELF-D patch mutant (called NELF-C);NELF-E (1-138) (Homo sapiens;Homo sapiens;Homo …, UniProt Q9H3P2;Q8WX92;Q8IXH7-4;P18615 1-528;49-628;1-581;1-138, ||R282Q;K306M;K362M;K363M;K365M;K375M;K379M;R410Q;R497Q|); test: as above; details: protein: recombinant;recombinant;recombinant;recombinant; copies: 1;1;1;1; label: 5'-FAM; single strand
[6] = molecular target: NELF-A full-length;NELF-B;NELF-D (called NELF-C) (Homo sapiens;Homo sapiens;Homo sapiens, UniProt Q9H3P2;Q8WX92;Q8IXH7-4 1-528;49-628;1-581, ||); test: as above; details: protein: recombinant;recombinant;recombinant, tags: none stated;N-His6-TEV in NELF-B and NELF-BE constructs (cleaved);N-His6-TEV, cleaved, copies: 1;1;1, label: 5'-FAM
[7] = molecular target: T1, NELF-A full-length;NELF-B;NELF-D patch mutant (called NELF-C) (Homo sapiens;Homo sapiens;Homo sapiens, UniProt Q9H3P2;Q8WX92;Q8IXH7-4 1-528;49-628;1-581, ||R282Q;K306M;K362M;K363M;K365M;K375M;K379M;R410Q;R497Q); test: as above; details: protein: recombinant;recombinant;recombinant; tags: none stated;N-His6-TEV in NELF-B and NELF-BE constructs (cleaved);N-His6-TEV, cleaved; copies: 1;1;1; label: 5'-FAM; single strand
[8] = molecular target: T2, NELF-A (6-188) patches 1,4;NELF-C (183-590) patches 1,2,4 (Homo sapiens;Homo sapiens, UniProt Q9H3P2;Q8IXH7 6-188;183-590, R65Q;R66Q;K146M;K161M;K168M;R175Q|R291Q;K315M;K371M;K372M;K374M;R419Q;R506Q); test: fluorescence anisotropy; text says impaired; Bmax printed 12.92; NELF-AC: 30 mM NaCl, 3 mM MgCl2, 10 mM Na-HEPES pH 7.4, 2 mM DTT, 50 ug/ml BSA; other NELF complexes: same with 60 mM NaCl and 5 ug/ml yeast tRNA; 10 nM nucleic acid, incubated at RT, read at 30 C; details: protein: recombinant;recombinant; tags: N-His6 removed by thrombin;none; copies: 1;1; label: 5'-FAM; single strand
[9] = molecular target: NELF-A full-length;NELF-B;NELF-D (called NELF-C);NELF-E full-length (Homo sapiens;Homo sapiens;Homo …, UniProt Q9H3P2;Q8WX92;Q8IXH7-4;P18615 1-528;49-628;1-581;1-380, |||); test: fluorescence anisotropy; yeast tRNA 5 ug/ml; NELF-AC: 30 mM NaCl, 3 mM MgCl2, 10 mM Na-HEPES pH 7.4, 2 mM DTT, 50 ug/ml BSA; other NELF complexes: same with 60 mM NaCl and 5 ug/ml yeast tRNA; 10 nM nucleic acid, incubated at RT, read at 30 C; details: protein: recombinant;recombinant;recombinant;recombinant; copies: 1;1;1;1; label: 5'-FAM; hairpin
[10] = molecular target: T1, NELF-A full-length;NELF-B;NELF-D patch …; test: fluorescence anisotropy; yeast tRNA 5 ug/ml; error as printed; NELF-AC: 30 mM NaCl, 3 mM MgCl2, 10 mM Na-HEPES pH 7.4, 2 mM DTT, 50 ug/ml BSA; other NELF complexes: same with 60 mM NaCl and 5 ug/ml yeast tRNA; 10 nM nucleic acid, incubated at RT, read at 30 C; details: protein: recombinant;recombinant;recombinant, tags: none stated;N-His6-TEV in NELF-B and NELF-BE constructs (cleaved);N-His6-TEV, copies: 1;1;1, label: 5'-FAM, single strand
[11] = molecular target: T2, NELF-A (6-188) patches 1,4;NELF-C …; test: fluorescence anisotropy; NELF-AC: 30 mM NaCl, 3 mM MgCl2, 10 mM Na-HEPES pH 7.4, 2 mM DTT, 50 ug/ml BSA; other NELF complexes: same with 60 mM NaCl and 5 ug/ml yeast tRNA; 10 nM nucleic acid, incubated at RT, read at 30 C; details: protein: recombinant;recombinant; tags: N-His6 removed by thrombin;none; copies: 1;1; label: 5'-FAM; single strand
[12] = molecular target: NELF-A (6-188) patches 1,4;NELF-C (183-590) patches 1,2,3,4 (Homo sapiens;Homo sapiens, UniProt Q9H3P2;Q8IXH7 6-188;183-590, R65Q;R66Q;K146M;K161M;K168M;R175Q|R291Q;K315M;K371M;K372M;K374M;K384M;K388M;R419 …); test: as above; details: protein: recombinant;recombinant; tags: N-His6 removed by thrombin;none; copies: 1;1; label: 5'-FAM; single strand

Sequence of NELF-B;NELF-E (1-138) (Q8WX92 whole entry, chain 1 of 2): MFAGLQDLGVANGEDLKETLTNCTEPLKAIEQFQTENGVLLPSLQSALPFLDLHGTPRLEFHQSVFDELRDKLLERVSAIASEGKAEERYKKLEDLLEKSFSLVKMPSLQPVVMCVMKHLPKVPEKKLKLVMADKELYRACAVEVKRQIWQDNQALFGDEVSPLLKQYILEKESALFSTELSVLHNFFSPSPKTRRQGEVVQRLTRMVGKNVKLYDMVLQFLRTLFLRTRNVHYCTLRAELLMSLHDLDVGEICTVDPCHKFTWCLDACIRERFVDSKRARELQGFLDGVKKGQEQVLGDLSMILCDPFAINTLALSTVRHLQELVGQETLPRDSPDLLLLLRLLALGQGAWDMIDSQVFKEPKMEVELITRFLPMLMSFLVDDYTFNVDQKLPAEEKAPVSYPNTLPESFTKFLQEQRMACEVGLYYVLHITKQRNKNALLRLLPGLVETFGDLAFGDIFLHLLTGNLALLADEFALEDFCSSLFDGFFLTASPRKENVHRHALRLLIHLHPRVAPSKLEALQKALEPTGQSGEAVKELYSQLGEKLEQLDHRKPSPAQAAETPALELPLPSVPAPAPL
Sequence of NELF-B;NELF-E (1-138) (P18615 1-138, chain 2 of 2): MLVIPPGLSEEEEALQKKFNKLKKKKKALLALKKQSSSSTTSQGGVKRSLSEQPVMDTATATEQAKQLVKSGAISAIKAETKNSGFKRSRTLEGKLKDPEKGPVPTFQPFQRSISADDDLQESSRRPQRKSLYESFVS
Sequence of NELF-A full-length;NELF-B;NELF-D (called NELF-C);NELF-E (1-138) (Q9H3P2 whole entry, chain 1 of 4): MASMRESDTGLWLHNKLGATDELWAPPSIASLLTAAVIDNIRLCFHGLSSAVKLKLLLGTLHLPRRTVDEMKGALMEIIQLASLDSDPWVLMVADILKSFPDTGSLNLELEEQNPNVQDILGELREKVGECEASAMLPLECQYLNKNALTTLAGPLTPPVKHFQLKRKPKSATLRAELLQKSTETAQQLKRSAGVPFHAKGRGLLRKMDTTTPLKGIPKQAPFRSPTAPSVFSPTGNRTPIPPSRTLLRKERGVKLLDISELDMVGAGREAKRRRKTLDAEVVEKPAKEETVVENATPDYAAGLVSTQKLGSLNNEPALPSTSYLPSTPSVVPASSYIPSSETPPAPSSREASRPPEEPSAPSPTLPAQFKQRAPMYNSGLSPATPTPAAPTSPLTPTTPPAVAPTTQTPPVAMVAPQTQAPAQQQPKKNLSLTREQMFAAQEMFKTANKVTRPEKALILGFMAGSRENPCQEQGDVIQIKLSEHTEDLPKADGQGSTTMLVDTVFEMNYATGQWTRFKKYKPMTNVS
Sequence of NELF-A full-length;NELF-B;NELF-D (called NELF-C);NELF-E (1-138) (Q8WX92 whole entry, chain 2 of 4): as the sequence (Q8WX92 whole entry, chain 1 of 2) above
Sequence of NELF-A full-length;NELF-B;NELF-D (called NELF-C);NELF-E (1-138) (Q8IXH7 10-590, chain 3 of 4): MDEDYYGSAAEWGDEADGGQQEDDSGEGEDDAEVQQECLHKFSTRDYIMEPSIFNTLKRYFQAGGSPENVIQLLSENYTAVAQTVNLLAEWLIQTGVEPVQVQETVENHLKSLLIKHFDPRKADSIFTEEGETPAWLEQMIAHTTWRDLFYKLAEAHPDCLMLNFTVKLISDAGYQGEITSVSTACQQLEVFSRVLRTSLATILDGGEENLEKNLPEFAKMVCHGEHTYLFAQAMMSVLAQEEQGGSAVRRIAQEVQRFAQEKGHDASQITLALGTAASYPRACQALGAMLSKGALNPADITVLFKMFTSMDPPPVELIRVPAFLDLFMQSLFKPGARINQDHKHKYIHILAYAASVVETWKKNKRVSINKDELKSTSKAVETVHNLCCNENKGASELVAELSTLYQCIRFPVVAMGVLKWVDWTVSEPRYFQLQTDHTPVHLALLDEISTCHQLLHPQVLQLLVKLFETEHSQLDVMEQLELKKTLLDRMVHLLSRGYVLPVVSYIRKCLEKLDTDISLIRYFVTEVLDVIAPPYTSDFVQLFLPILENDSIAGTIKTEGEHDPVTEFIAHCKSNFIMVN
Sequence of NELF-A full-length;NELF-B;NELF-D (called NELF-C);NELF-E (1-138) (P18615 1-138, chain 4 of 4): as the sequence (P18615 1-138, chain 2 of 2) above
Sequence of NELF-A full-length;NELF-B;NELF-D (called NELF-C) (Q9H3P2 whole entry, chain 1 of 3): as the sequence (Q9H3P2 whole entry, chain 1 of 4) above
Sequence of NELF-A full-length;NELF-B;NELF-D (called NELF-C) (Q8WX92 whole entry, chain 2 of 3): as the sequence (Q8WX92 whole entry, chain 1 of 2) above
Sequence of NELF-A full-length;NELF-B;NELF-D (called NELF-C) (Q8IXH7 10-590, chain 3 of 3): as the sequence (Q8IXH7 10-590, chain 3 of 4) above
Sequence of NELF-A (6-188);NELF-C (183-590) (Q9H3P2 6-188, chain 1 of 2): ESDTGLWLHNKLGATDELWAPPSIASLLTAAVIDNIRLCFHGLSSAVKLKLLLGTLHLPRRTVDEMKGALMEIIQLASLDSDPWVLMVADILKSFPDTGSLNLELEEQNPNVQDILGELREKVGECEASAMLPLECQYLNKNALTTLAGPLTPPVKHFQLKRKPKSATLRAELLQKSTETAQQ
Sequence of NELF-A (6-188);NELF-C (183-590) (Q8IXH7 183-590, chain 2 of 2): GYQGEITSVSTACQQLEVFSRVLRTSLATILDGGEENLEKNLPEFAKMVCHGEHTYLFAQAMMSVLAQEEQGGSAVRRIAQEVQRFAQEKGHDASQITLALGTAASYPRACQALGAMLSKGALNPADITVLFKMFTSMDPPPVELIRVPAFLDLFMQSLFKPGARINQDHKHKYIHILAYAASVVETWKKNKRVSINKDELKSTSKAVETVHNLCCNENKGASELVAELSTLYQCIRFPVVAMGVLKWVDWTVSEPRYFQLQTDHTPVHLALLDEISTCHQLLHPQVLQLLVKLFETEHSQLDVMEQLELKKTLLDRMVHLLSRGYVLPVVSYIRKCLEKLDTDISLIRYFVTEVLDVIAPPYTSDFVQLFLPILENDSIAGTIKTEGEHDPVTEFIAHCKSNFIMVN

B1: junB ssRNA (ssRNA)
RNA: AGCGGCCAGGCCAGCCUCGGAGCCA
B1 gave a Kd ([1]; label: 5'-FAM, single strand) of ~8000 nM.

B2: 60% GC ssDNA (ssDNA)
DNA: AAGGGGAGCGGGGGAGGATAATAGG
With B2 the Kd ([2]; single strand) was 30 ± 10 nM, the Kd [3] was 6310 ± 1920 nM and the Kd ([4]; single strand) was 17400 ± 3500 nM. The Kd [5] was 300 ± 80 nM, the Kd ([6]; single strand) was 100 ± 30 nM and the Kd [7] was 770 ± 20 nM. For the same binder, the Kd [8] was 12900 ± 2280 nM and the Kd ([1]; label: 5'-FAM, single strand) was 17500 ± 1330 nM.

B3: 44% GC ssRNA (ssRNA)
RNA: ACCCCACAACUAAAAAAUCCCAACC
B3: no binding ([1]; label: 5'-FAM, single strand).

B4: 60% GC DNA-RNA hybrid (DNA:RNA)
DNA: AAGGGGAGCGGGGGAGGATAATAGG
RNA: CCUAUUAUCCUCCCCCGCUCCCCUU
B4: no binding [1].

B5: HIV-1 TAR RNA stem loop (structured_RNA)
RNA: CCAGAUCUGAGCCUGGGAGCUCUCUGG
B5 showed a Kd ([2]; hairpin) of 869 ± 140 nM, a Kd ([4]; hairpin) of 5590 ± 1050 nM and a Kd ([6]; hairpin) of 1320 ± 180 nM. The Kd [9] was 146 ± 30 nM.

B6: 60% GC ssRNA (ssRNA)
RNA: AAGGGGAGCGGGGGAGGAUAAUAGG
Binder B6 has a Kd [10] of 290 nM, a Kd ([2]; single strand) of 30 ± 7 nM and a Kd [3] of 8500 ± 1590 nM. For the same binder, the Kd ([4]; single strand) was 2830 ± 1000 nM, the Kd [5] was 94 ± 20 nM and the Kd ([6]; single strand) was 74 ± 14 nM. It also gave a Kd [11] of 14300 ± 2410 nM, a Kd ([1]; label: 5'-FAM, single strand) of 6870 ± 460 nM and a Kd [12] of 14300 ± 2670 nM.

B7: c-fos ssDNA (ssDNA)
DNA: AAGACTGAGCCGGCGGCCGC
B7: binds ([1]; label: 5'-FAM, single strand).

B8: 60% GC dsDNA (dsDNA)
DNA 1: AAGGGGAGCGGGGGAGGATAATAGG
DNA 2: CCTATTATCCTCCCCCGCTCCCCTT
B8: no binding ([1]; label: 5'-FAM).
